As usually defined, the stoichiometry N is a count of units in the complex or per binding partner.

Drawing on publication PMC7354611, this text covers stoichiometry N for 1 substance.

This assay has as its target Bacillus cereus MazF (mRNA interferase BC0266) (Bacillus cereus). The assay can be described thus: SEC; Superdex 75 10/300 GL column, with reference proteins of the Gel Filtration Calibration Kits (GE Healthcare); His-tagged MazF eluted at almost the same time as carbonic anhydrase (29 kDa).

With “Bacillus cereus MazF (mRNA interferase BC0266) (natural protein)”, the stoichiometry N turned out to be 2.
